Measured values published in patent US20170321218A1, “FACTOR XIA-SPECIFIC APTAMERS” (CANADIAN BLOOD SERVICES, published 2017).
Blank lines part the entries; values can stand above or below the molecule they belong to.

Assays:
thrombin = thrombin (UniProt P00734); assay: cell-based or functional assay
Factor XIa (FXIa) [1] = molecular target: T1, Factor XIa (FXIa) (UniProt P03951;P03951 P03951:19-387,P03951:388-625); assay: SPR; ±0.1 nM; ka 5.2e4 M-1s-1, kd 9.5e-5 s-1; 100 mM HEPES pH 7.4, 150 mM NaCl, 0.01% Tween 20, 25 C; SCRAPT reference cell subtracted; details: chain copies: 2,2; label: 3'-biotin; predicted stem-loop hairpin with bulge and two small loops
T1 sequence (P03951 19-387, chain 1 of 2): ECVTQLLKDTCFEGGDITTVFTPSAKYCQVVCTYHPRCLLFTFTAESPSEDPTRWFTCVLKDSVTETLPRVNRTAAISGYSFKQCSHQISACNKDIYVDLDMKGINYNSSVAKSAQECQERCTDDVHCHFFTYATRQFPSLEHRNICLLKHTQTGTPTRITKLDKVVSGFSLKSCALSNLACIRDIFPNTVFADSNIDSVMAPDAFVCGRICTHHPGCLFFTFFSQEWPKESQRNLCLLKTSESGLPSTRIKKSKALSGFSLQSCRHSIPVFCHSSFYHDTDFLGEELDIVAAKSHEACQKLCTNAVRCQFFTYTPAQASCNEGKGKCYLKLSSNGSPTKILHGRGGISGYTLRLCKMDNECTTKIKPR
T1 sequence (P03951 388-625, chain 2 of 2): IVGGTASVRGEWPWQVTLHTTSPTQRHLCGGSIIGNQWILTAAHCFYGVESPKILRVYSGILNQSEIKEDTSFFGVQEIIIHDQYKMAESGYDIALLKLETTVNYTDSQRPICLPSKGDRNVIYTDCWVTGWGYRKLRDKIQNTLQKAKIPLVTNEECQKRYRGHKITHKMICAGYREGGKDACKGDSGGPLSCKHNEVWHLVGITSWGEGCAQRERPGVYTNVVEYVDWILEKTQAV
Description: Kinetic measurements of aptamer binding were analyzed by SPR on a Biacore T200 (GE Healthcare). To immobilize the aptamer, a CM5 sensor chip (GE Healthcare) was activated with a 0.2 M N-ethyl-N′-(dimethylamino-propyl) carbodiimide (EDC) and 0.05 M N-hydroxysuccinimide (NHS) (Sigma) solution, followed by binding of streptavidin (0.2 mg/ml, pH 4.5). FELIAP and SCRAPT (3′ biotinylated) in 100 mM HEPES (pH 7.4), 150 mM NaCl, 0.01% Tween 20 were immobilized on the streptavidin-coated chips at a flow rate of 10 μL/min to 100 response units (RU). Flow cells were regenerated with 0.2% SDS (w/vol). FXIa at concentrations varying from 15.671 nM to 500 nM was injected at a flow rate of 50 μl/min for 180 s to monitor association, and HEPES buffer for 1800 s to monitor dissociation. The signal from the SCRAPT-immobilized flow cell was used as a reference and subtracted from the signal arising from FXIa binding to the FELIAP-immobilized cell. Binding of FXIa and aptamer was quantified by global analysis of on and off rates using the Langmuir 1:1 binding model, as determined with the instrument's software provided by the manufacturer (Biacore). All experiments were done in triplicate.

Factor XIa (FXIa) [2] = molecular target: T1, Factor XIa (FXIa); assay: inhibition; competitive inhibition of S2366 amidolysis; PPNE pH 7.4, 37 C; details: chain copies: 2,2; predicted stem-loop hairpin with bulge and two small loops
Description: The mode of inhibition of FELIAP was investigated by fixing the concentrations of chromogenic substrate and FXIa and increasing the concentration of FELIAP and measuring the rate of substrate cleavage. A dose-dependent reduction in the reaction rate was observed as FELIAP was increased from 0 to 20 μM, while the same concentrations of SCRAPT had no inhibitory effect (FIG. 2A). Next, the concentration of chromogenic substrate S2366 was varied while keeping FXIa constant at different concentrations of FELIAP (FIG. 2B).

thrombin generation assay, FXI-depleted plasma with tissue factor: time to peak thrombin (thrombin): 3.1 fold
Molecule: recombinant His-tagged hirudin variant 3

B1: FELIAP 3'-biotin (ssDNA)
DNA: GAATTCTAATACGACTCACTATAAACCTATCGGACTATTGTTAGTGATTTTTATAGTGTGCGTCCAACACATCG
Kd (Factor XIa (FXIa) [1]): 0.0018 µM

B2: FELIAP (Apt10-10) (ssDNA)
DNA: GAATTCTAATACGACTCACTATAAACCTATCGGACTATTGTTAGTGATTTTTATAGTGTGCGTCCAACACATCG
Ki (Factor XIa (FXIa) [2]): 29 µM
